We go through 2 substances from patent US20090233850A1.

Assay [1] addresses recombinant monomeric HIV-1 YU2 gp120, produced in Drosophila S2 cells (HIV-1 YU2) (UniProt P35961). In words: SPR, Biacore 3000, from the response at 300 nM against the 33 RU expected for 1:1. (In general: In SPR one partner is held on a chip, and binding of the other changes the refractive index at the surface.)
For assay [2] the target is unchanged. Nature of the assay: SPR, Biacore 3000, about 250 RU YU2 gp120 amine-coupled to CM5 chip, CVN in flow, 2B6R reference cell.
The target is the same in assay [3]. Nature of the assay: competition ELISA on plate-adsorbed YU2 gp120; competitor mAb 2G12 at 50 ug/ml; percent of control without CVN. For orientation: ELISA stands for enzyme-linked immunosorbent assay.
Assay [4] has the same target. Nature of the assay: ELISA, 100 ng YU2 gp120 adsorbed on the plate, serial dilutions of CVN, detection with polyclonal anti-CVN, BSA background subtracted.
The target of assay [5] is gp120 on HIV-1 BaL (R5) virus (HIV-1 BaL). Nature of the assay: cell-based or functional assay.

One may read the EC50 (read off the curve) as the concentration needed to bring the measured effect to its halfway point. In the case of “cyanovirin-N (CVN), recombinant, periplasmic expression in E. coli, hexa-histidine tagged (from UniProt P81180 1-101)”, the binding stoichiometry (CVN:gp120) in assay [1] stood at 3. The SPR response at 300 nM in assay [2] is 95 RU. In assay [3], the IC50 (read off the curve) is 30 nM. The EC50 (read off the curve) in assay [4] was 10 nM.
For “unlinked CVN and 12p1 (non-covalent mixture) (from UniProt P81180 1-101)”, in assay [5], the boost of efficacy (% inhibition of HIV-1 BaL) of the mixture against CVN alone at the two lowest concentrations, 12p1 at 16-31 uM was 2 fold; the synergy index of the combination of CVN and 12p1, inhibition of HIV-1 BaL replication in PM-1 cells (gp120 ELISA after 7 days) lay in the range of 0.3 to 0.5.
